Legend:
[1] = tested on: intracellular calcium concentration ([Ca^2+]i); assay: [Ca^2+]i measurement with Indo-1 AM in SgPC2 cells; format: cell-based, human; conditions: 24 h, 2 mU/ml GO
Procedure: Briefly, on the day of the experiment, cells were washed in Krebs-Ringer phosphate buffer (KRPH; pH 7.4, containing 1.0 mM MgSO4, 1.3 mM CaCl2, 10 mM Hepes, 5 mM glucose, 125 mM NaCl, 5 mM KCl, and 10 mM sodium phosphate) and subsequently loaded with 10-20 μM Indo-1 AM (70 μl/coverslip; Molecular Probes, Inc., Eugene, Oreg., USA) containing 10 μM probenecid (Molecular Probes) for 30 min at 37° C. The attached cells were washed and bathed in KRPH/probenecid at 4° C. or room temperature until further analysis. Then, coverslips were individually submerged into KRPH and preequilibrated inside the […] fluorimeter (Hitachi) in darkness for 3 min, and [Ca^2+]i was monitored continuously at 37° C., with excitation at […] and emission at 400 and 450 nm. H2O2 and other agents were injected at different time points, as indicated under Results. [Ca^2+]i was calculated as described. Rmax was determined by adding 8-16 μM digitonin and Rmin with 10 mM ethylene glycol-bis(β-aminoethyl)-N,N,N'-tetraacetic acid (EGTA). […] The baseline, which represented unstimulated cells scanned over time, was plotted along with other measurements or subtracted from the other plots. Cells were serum-depleted, 1 day before the experiment, by incubating them overnight in DMEM plus 0.5% FBS. […] Then, CaCl2 was added before determining the Rmax for each run.

[2] = tested on: HCV NS5A; conditions: after 24 h of GO exposure
Procedure: Cells were sonicated in 2× Laemmli buffer and total protein samples were analyzed for HCV NS5A level by Western blot, using monoclonal anti-NS5A antibodies (Biodesign) and the corresponding horseradish peroxidase-conjugated secondary antibodies. Chemiluminescent images were processed with an ECL kit from Amersham Pharmacia and analyzed with the IS2000 gel imaging system (Kodak).

[3] = tested on: JFH1 HCV (genotype 2a); format: cell-based, hepatitis C virus; conditions: JFH1-transfected cells, 0.25 mU/mL GO plus glucose
Procedure: (§1) For viral RNA transfection, JFH1, JFH1/GND, and pSGR-JFH1-Luc were linearized with XbaI and used to synthesize the corresponding positive-sense stranded HCV RNA, as previously described (68). Then, 5×10^6 Huh7 cells were rinsed with Opti-Mem (Invitrogen), mixed briefly with 10-20 μg of the in vitro transcribed RNA in 0.4 ml of Opti-Mem, and then electroporated at 260 volts and 950 μF. […] Medium was changed daily. For infection with HCV, medium collected from JFH1 RNA-transfected cells were cleared of cell debris, as described, and added to naïve Huh7 cells. Typically, 1:2 or 3:2 ratio of the virus-containing medium and fresh cell culture medium were used.
JFH1/GND was used as the negative control. […]
Intracellular JFH1 HCV RNA content was also analyzed by qRT-PCR (Taqman), using ABI7300 real time PCR system and one step RT-PCR kit from Applied Biosystems. […] All samples were analyzed in duplicates or triplicates. […] The level of 18S rRNA was also analyzed, using manufacturer-optimized protocol, as the control.
To analyze the amount of the extracellular HCV RNA, medium from the cells were cleared by low-speed centrifugation and then, treated with RNaseA at room temperature. Then, the RNA samples were extracted, using Trizol LS Reagent (Invitrogen), and analyzed for HCV RNA content by qRT-PCR.

[4] = tested on: JFH1-transfected cells; assay: ATP concentration as cytotoxicity measure in JFH1-transfected cells; conditions: JFH1-transfected cells, concentrations used
Procedure: Determination of ATP concentrations—ATP level was measured, using Somatic Cell ATP Assay kit from Sigma-Aldrich, as previously described (68). Protein level was determined with bicinchoninic acid kit (Pierce Biotechnology, Inc., Rockford, Ill.).
ATP concentration was measured to determine if the treatments were cytotoxic to the cells.

[5] = tested on: subgenomic HCV replicon of genotype 1b; assay: microbe, parasite or virus in culture; format: cell-based, hepatitis C virus
Procedure: Huh7 human hepatoma cells were cultured in Dulbecco's modified Eagle medium (DMEM; Invitrogen, Carlsbad, Calif., USA) supplemented with 10% fetal bovine serum (FBS; Invitrogen), 100 units/ml of penicillin, and 100 μg/ml of streptomycin in a 5% CO2 incubator. SgPC2 cells are G418-selected, pooled Huh7 cell clones that support the continuous replication of a subgenomic HCV replicon of genotype 1b and [29] (GenBank Accession No. AJ242652) that carries a S11791 adaptive mutation within the NS5A region. SgPC2 cells were maintained in the above medium supplemented with 0.5 mg/ml G418 (Invitrogen). G418 was removed at least 1 day before cell treatments.

[6] = tested on: SgJFH1-Luc RNA (subgenomic JFH1 replicon); assay: SgJFH1-Luc RNA replication in Huh7 cells, luciferase assay; format: cell-based, hepatitis C virus; conditions: Huh7 cells transfected with SgJFH1-Luc RNA
Procedure: as §1
SgJFH1-Luc RNA replication was also monitored by firefly luciferase reporter assay, using a kit from Promega.
To investigate whether the HCV RNA replication is modulated by ROS, Huh7 cells were transfected with the SgJFH1-Luc RNA and treated with GO plus glucose.
After 24 and 48 hours, respectively, the cells were collected in PBS, centrifuged, lysed in the reporter lysis buffer (Promega), and analyzed for luciferase activity.

B1: GO: enzyme which catalyzes the oxidation of β-D-glucose to D-glucono-1,5-lactone and hydrogen peroxide (protein, UniProt P13006 17-605, looked up)
Glucose oxidase: LPHYIRSNGIEASLLTDPKDVSGRTVDYIIAGGGLTGLTTAARLTENPNISVLVIESGSYESDRGPIIEDLNAYGDIFGSSVDHAYETVELATNNQTALIRSGNGLGGSTLVNGGTWTRPHKAQVDSWETVFGNEGWNWDNVAAYSLQAERARAPNAKQIAAGHYFNASCHGVNGTVHAGPRDTGDDYSPIVKALMSAVEDRGVPTKKDFGCGDPHGVSMFPNTLHEDQVRSDAAREWLLPNYQRPNLQVLTGQYVGKVLLSQNGTTPRAVGVEFGTHKGNTHNVYAKHEVLLAAGSAVSPTILEYSGIGMKSILEPLGIDTVVDLPVGLNLQDQTTATVRSRITSAGAGQGQAAWFATFNETFGDYSEKAHELLNTKLEQWAEEAVARGGFHNTTALLIQYENYRDWIVNHNVAYSELFLDTAGVASFDVWDLLPFTRGYVHILDKDPYLHHFAYDPQYFLNELDLLGQAAATQLARNISNSGAMQTYFAGETIPGDNLAYDADLSAWTEYIPYHFRPNYHGVGTCSMMPKEMGGVVDNAARVYGVQGLRVIDGSIPPTQMSSHVMTVFYAMALKISDAILEDYASMQ
- intracellular calcium concentration [1]: 66.4 ± 10.7 nM
- NS5A protein level [2]: decrease
- decrease of intracellular HCV RNA content [3]: 30±8%
- cytotoxicity (ATP concentration, cell survivability) [4]: did not cause any loss in cell survivability
- effect on HCV RNA level / replication [5]: dose-dependently suppressed
- HCV RNA level by luciferase activity [6]: decreased HCV RNA level

B2: IFN-γ: interferon-γ, known to inhibit HCV RNA replication in Huh7 cells (protein, UniProt P01579 24-161, looked up)
Interferon gamma: QDPYVKEAENLKKYFNAGHSDVADNGTLFLGILKNWKEESDRKIMQSQIVSFYFKLFKNFKDDQSIQKSVETIKEDMNVKFFNSNKKKRDDFEKLTNYSVTDLNVQRKAIHELIQVMAELSPAAKTGKRKRSQMLFRG
- effect on HCV RNA replication after 30 min of treatment ([5]; 30 min treatment): no appreciable effect
- HCV RNA level, % of control level ([5]; SgPC2 cells, 24 h, 100 U/ml): about 15%

B3: catalase: exogenous catalase (Sigma-Aldrich) added to confirm the role of H2O2 (protein, UniProt P00432 2-527, looked up)
Catalase: ADNRDPASDQMKHWKEQRAAQKPDVLTTGGGNPVGDKLNSLTVGPRGPLLVQDVVFTDEMAHFDRERIPERVVHAKGAGAFGYFEVTHDITRYSKAKVFEHIGKRTPIAVRFSTVAGESGSADTVRDPRGFAVKFYTEDGNWDLVGNNTPIFFIRDALLFPSFIHSQKRNPQTHLKDPDMVWDFWSLRPESLHQVSFLFSDRGIPDGHRHMNGYGSHTFKLVNANGEAVYCKFHYKTDQGIKNLSVEDAARLAHEDPDYGLRDLFNAIATGNYPSWTLYIQVMTFSEAEIFPFNPFDLTKVWPHGDYPLIPVGKLVLNRNPVNYFAEVEQLAFDPSNMPPGIEPSPDKMLQGRLFAYPDTHRHRLGPNYLQIPVNCPYRARVANYQRDGPMCMMDNQGGAPNYYPNSFSAPEHQPSALEHRTHFSGDVQRFNSANDDNVTQVRTFYLKVLNEEQRKRLCENIAGHLKDAQLFIQKKAVKNFSDVHPEYGSRIQALLDKYNEEKPKNAVHTYVQHGSHLSAREKANL
- effect on the suppression of HCV RNA by GO ([5]; SgPC2 cells, GO 24 h, 130-200 U/ml catalase or 2 μM BAPTA-AM): attenuated the suppression by GO
